From the supplement of paper PMC11865577

The sequences below were run on TO-N3 (biotin conjugate) (assay: pull-down binding Z-score (relative to library population); higher = stronger binding). Details: RNA library: Library-2.
Outline: (§1)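 Heat-folded RNA library (1 μg, Cy5 or Cy3 end label, phosphate/NaCl/KCl buffer) was captured for 60 min at 25 °C on streptavidin beads displaying 100 pmol of biotin-conjugated small molecule, then washed three times. The bound fraction, eluted in hot SDS, was hybridised to a DNA barcode microarray at 55.5 °C for 20 h. Z-scores for binding were taken against the library mean and standard deviation after beads-only subtraction and trimmed averaging of replicate barcoded probes.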

“UUUGCCUAUAAAAGUAAUGGCAAA [hsa-mir-548an]” was tested. Which “pull-down binding Z-score” value did it give?
The value was -0.512.

How did the “pull-down binding Z-score” value turn out when “UUUGCCUCUCUCAGAAAAUAGAGUCAAA [hsa-mir-4694]” was run?
The value was 0.157.

“UUUGCCUGUAAAAGUAAUGGCAAA [hsa-mir-548d-1]” was tested. Which “pull-down binding Z-score” value did it give?
The value was -0.702.

With UUUGCGUUACUUUCAAUCGUAAA [hsa-mir-548x] as the sequence, how does the “pull-down binding Z-score” value read?
The value was -1.13.

UUUGCUACUGAAAGUAAUGGCAAA [hsa-mir-548z] was tested. Which “pull-down binding Z-score” value did it give?
Its value is -0.792.

Which “pull-down binding Z-score” value does the source give for “UUUGCUAUUACUUUUAAUGGUAAA [hsa-mir-548aj-2]” here?
Its value is -0.932.

How did the “pull-down binding Z-score” value turn out when “UUUGCUAUUUUUUUUUAAUGGCAAA [hsa-mir-548ac]” was run?
The value was -1.01.

With UUUGCUGUUGAACGUAGUGGUAA [hsa-mir-548ar] as the sequence, how does the “pull-down binding Z-score” value read?
The value was 0.407.

How did the “pull-down binding Z-score” value turn out when “UUUGGCUGCCAAAAGAAAUGGCCAAA [hsa-mir-548at]” was run?
Its value is -0.547.

With UUUGGUAUUACUUUCAGUGGCAAA [hsa-mir-548j] as the sequence, how does the “pull-down binding Z-score” value read?
The value was -0.448.

“UUUGUACGGCACUGUGGCCACGUCCAAA [hsa-mir-497]” was tested. Which “pull-down binding Z-score” value did it give?
Its value is -0.0106.

With “UUUGUAUUGUGGUUCAGUACCAUGCAAA [hsa-mir-6507]” as the sequence, how does the “pull-down binding Z-score” value read?
The value was -0.633.

With UUUGUCAUUAAAGUAAUGCAAA [hsa-mir-548m] as the sequence, how does the “pull-down binding Z-score” value read?
Its value is 0.0311.

For “UUUGUCAUUACUUUAAUUACUUUACGUUUCAUUAAUGACAAA [hsa-mir-548h-4]”, which “pull-down binding Z-score” value is on record?
Its value is -1.43.

Which “pull-down binding Z-score” value does the source give for “UUUGUCAUUUAAAAGUAAUGGCAAA [hsa-mir-548ae-2]” here?
The value was -0.203.

Which “pull-down binding Z-score” value does the source give for UUUGUGGAUUUUGAAAAGGUGCAGG [hsa-mir-15a] here?
The value was 0.277.

“UUUGUGGGGCGAGGAGGGACCUGUACUAGCCAUGGUUCUGAUCACAUAUG [hsa-mir-6834]” was tested. Which “pull-down binding Z-score” value did it give?
The value was 3.83.

Which “pull-down binding Z-score” value does the source give for “UUUGUGUAAGGAAUUUUGUGGUCACAAA [hsa-mir-10a]” here?
The value was -1.25.

For “UUUGUUGAAAGAAUAAAUAAACCAACAAG [hsa-mir-1264]”, which “pull-down binding Z-score” value is on record?
Its value is -0.367.

Which “pull-down binding Z-score” value does the source give for UUUUAAUUUUUUUAAAA [hsa-mir-3606] here?
Its value is -0.183.

For UUUUAGAA [hsa-mir-4443], which “pull-down binding Z-score” value is on record?
The value was -0.913.

Which “pull-down binding Z-score” value does the source give for “UUUUAUCAUUACUUUUAAUGGCAAAA [hsa-mir-548f-2]” here?
Its value is 0.761.

How did the “pull-down binding Z-score” value turn out when UUUUCAGUUCCUGAGAUC [hsa-mir-4287] was run?
Its value is -0.128.

With “UUUUCAUGACAACCCUAUAUGGGAAAAUGUUGUGAAAA [hsa-mir-3646]” as the sequence, how does the “pull-down binding Z-score” value read?
Its value is -1.1.

How did the “pull-down binding Z-score” value turn out when “UUUUCCCUUUCUCUUGCCCUGAAA [hsa-mir-4509-1_4509-3_4509-2]” was run?
The value was -0.332.

With “UUUUCCUGAGAAUAAGAGAAGGAAGG [hsa-mir-4455]” as the sequence, how does the “pull-down binding Z-score” value read?
The value was 0.0683.

For UUUUCGCUUUAUAUGUGACGAAAC [hsa-mir-495], which “pull-down binding Z-score” value is on record?
The value was -0.787.

How did the “pull-down binding Z-score” value turn out when UUUUCUGGGA [hsa-mir-4456] was run?
Its value is -0.484.

How did the “pull-down binding Z-score” value turn out when “UUUUCUGUCCUGUCCACACAGAAAA [hsa-mir-1537]” was run?
Its value is -1.27.

“UUUUCUUAAAUUGUAUAAAGAGAAAU [hsa-mir-944]” was tested. Which “pull-down binding Z-score” value did it give?
Its value is -0.741.

For UUUUGAAAGUAACUUGGCGAAA [hsa-mir-548ad], which “pull-down binding Z-score” value is on record?
Its value is -0.0602.

With “UUUUGACAUUACUUUCAAAGACAAAA [hsa-mir-548f-1]” as the sequence, how does the “pull-down binding Z-score” value read?
The value was -1.09.

With UUUUGCAAUUUUUUAAUGACAAAA [hsa-mir-548t] as the sequence, how does the “pull-down binding Z-score” value read?
Its value is -0.585.

How did the “pull-down binding Z-score” value turn out when “UUUUGCAGUUGAAAGUAAUGGCAAAG [hsa-mir-548ao]” was run?
Its value is -0.0635.

With “UUUUGCAGUUUUUUUAAGUAAUUGCAAAA [hsa-mir-548f-3]” as the sequence, how does the “pull-down binding Z-score” value read?
The value was -0.812.

How did the “pull-down binding Z-score” value turn out when “UUUUGCAUUUAAAGUAAUGGCCAAA [hsa-mir-548ay]” was run?
Its value is -0.77.

For “UUUUGCCAUUAAAAGUAAUGACAAAA [hsa-mir-548f-4]”, which “pull-down binding Z-score” value is on record?
The value was -1.47.

With “UUUUGCCAUUACUUUCAAUGGCAAAA [hsa-mir-548aa-2]” as the sequence, how does the “pull-down binding Z-score” value read?
Its value is -0.176.

For “UUUUGCCAUUACUUUUACAGGCAAAA [hsa-mir-548aa-1]”, which “pull-down binding Z-score” value is on record?
The value was -0.991.

For “UUUUGCUAUUACUUUUAAAGGCAAAA [hsa-mir-548e]”, which “pull-down binding Z-score” value is on record?
Its value is -0.0747.

With “UUUUGCUGUUACUUUUAAUGGCAAAA [hsa-mir-548az]” as the sequence, how does the “pull-down binding Z-score” value read?
Its value is -0.752.

Which “pull-down binding Z-score” value does the source give for “UUUUGCUUGUGUCUCUCCGCUCUGAGCAAUC [hsa-mir-96]” here?
Its value is 0.528.

With UUUUGUCUGA [hsa-mir-553] as the sequence, how does the “pull-down binding Z-score” value read?
Its value is -0.549.

Which “pull-down binding Z-score” value does the source give for “UUUUUCCAUUGUAAGUAAUGGGAAAA [hsa-mir-548f-5]” here?
Its value is -0.991.

How did the “pull-down binding Z-score” value turn out when UUUUUCUUUACUUUUAAUGGCAAA [hsa-mir-548u] was run?
Its value is -1.35.

For “UUUUUGCAUUACGUUCUAUGGCAAAA [hsa-mir-548g]”, which “pull-down binding Z-score” value is on record?
The value was -0.182.

Which “pull-down binding Z-score” value does the source give for UUUUUGUUUUUGAGACAGAGU [hsa-mir-4472-2] here?
The value was 0.274.

“UUUUUUUCCAAUGAAAAUAACGAAACCUGUUAUUUCCCAUUGAGGGGGAAAAA [hsa-mir-4484]” was tested. Which “pull-down binding Z-score” value did it give?
Its value is -1.15.

For “UUUUUUUCGCUUUAUUUGUGACGAAAC [hsa-mir-543]”, which “pull-down binding Z-score” value is on record?
Its value is -0.856.

Each sequence was assayed on G-clamp-N3 (biotin conjugate) in the same assay as above. Details: RNA library: Library-1 (pre-miRNA loops + repeats).
Outline: as §1

“UUUCUGUUGUCUGAAAGAAGAGAAA [hsa-mir-526b_518a-1]” was tested. Which “pull-down binding Z-score” value did it give?
Its value is 0.288.

Which “pull-down binding Z-score” value does the source give for “UUUCUGUUGUCUGAAAGCAGA [hsa-mir-515-1_515-2]” here?
Its value is -0.445.

How did the “pull-down binding Z-score” value turn out when UUUCUUAAAUUUUAUAUAUUGGAA [hsa-mir-1284] was run?
The value was -0.71.

For UUUGCAUCUGGACGACGAAU [hsa-mir-409], which “pull-down binding Z-score” value is on record?
Its value is -0.465.

With “UUUGCCAAUAAAAGUAAUGACAAA [hsa-mir-548ah]” as the sequence, how does the “pull-down binding Z-score” value read?
Its value is -1.16.

For UUUGCCAGAGCUACAAAGGCAAA [hsa-mir-561], which “pull-down binding Z-score” value is on record?
Its value is 0.627.

For “UUUGCCAUUAAAAGUAACGACAAA [hsa-mir-548a-1]”, which “pull-down binding Z-score” value is on record?
The value was -0.965.

How did the “pull-down binding Z-score” value turn out when “UUUGCCAUUAAAAGUAAUGCGGCCAA [hsa-mir-548o-2]” was run?
The value was -1.43.

“UUUGCCAUUAAAAGUAAUGGUAAA [hsa-mir-548x-2]” was tested. Which “pull-down binding Z-score” value did it give?
Its value is -0.261.

Which “pull-down binding Z-score” value does the source give for UUUGCCAUUACUUUCAGUAGCAAA [hsa-mir-548c] here?
The value was -0.417.

How did the “pull-down binding Z-score” value turn out when “UUUGCCAUUACUUUCAGUGGCAAA [hsa-mir-548aq]” was run?
Its value is 0.135.

Which “pull-down binding Z-score” value does the source give for UUUGCCAUUAUAAUGGCAAA [hsa-mir-548ae-1] here?
The value was -0.11.

For “UUUGCCAUUGAAAGUAAUGGCAAA [hsa-mir-548d-2]”, which “pull-down binding Z-score” value is on record?
Its value is 0.739.

For “UUUGCCGUCGAAAAUAAUGGCAAA [hsa-mir-548am]”, which “pull-down binding Z-score” value is on record?
The value was -0.204.

With UUUGCCGUUAAAAGUAAUGGCA [hsa-mir-548a-2] as the sequence, how does the “pull-down binding Z-score” value read?
Its value is -1.31.

With “UUUGCCGUUGCUUUUAAUGGUAAA [hsa-mir-548as]” as the sequence, how does the “pull-down binding Z-score” value read?
The value was -0.134.

How did the “pull-down binding Z-score” value turn out when “UUUGCCUAUAAAAGUAAUGGCAAA [hsa-mir-548an]” was run?
Its value is 0.207.

Which “pull-down binding Z-score” value does the source give for “UUUGCCUCUCUCAGAAAAUAGAGUCAAA [hsa-mir-4694]” here?
The value was 0.239.

With “UUUGCCUGUAAAAGUAAUGGCAAA [hsa-mir-548d-1]” as the sequence, how does the “pull-down binding Z-score” value read?
Its value is -0.646.

UUUGCGUUACUUUCAAUCGUAAA [hsa-mir-548x] was tested. Which “pull-down binding Z-score” value did it give?
Its value is -0.79.

For UUUGCUACUGAAAGUAAUGGCAAA [hsa-mir-548z], which “pull-down binding Z-score” value is on record?
The value was 0.365.

Which “pull-down binding Z-score” value does the source give for “UUUGCUAUUACUUUUAAUGGUAAA [hsa-mir-548aj-2]” here?
Its value is 1.61.

Which “pull-down binding Z-score” value does the source give for “UUUGCUAUUUUUUUUUAAUGGCAAA [hsa-mir-548ac]” here?
Its value is 0.725.

With UUUGCUGUUGAACGUAGUGGUAA [hsa-mir-548ar] as the sequence, how does the “pull-down binding Z-score” value read?
Its value is -0.679.

For “UUUGGCUGCCAAAAGAAAUGGCCAAA [hsa-mir-548at]”, which “pull-down binding Z-score” value is on record?
The value was -0.71.

With UUUGGUAUUACUUUCAGUGGCAAA [hsa-mir-548j] as the sequence, how does the “pull-down binding Z-score” value read?
The value was 0.937.

For “UUUGUACGGCACUGUGGCCACGUCCAAA [hsa-mir-497]”, which “pull-down binding Z-score” value is on record?
Its value is -0.884.

“UUUGUAUUGUGGUUCAGUACCAUGCAAA [hsa-mir-6507]” was tested. Which “pull-down binding Z-score” value did it give?
The value was -0.552.

For UUUGUCAUUAAAGUAAUGCAAA [hsa-mir-548m], which “pull-down binding Z-score” value is on record?
Its value is -0.115.

How did the “pull-down binding Z-score” value turn out when “UUUGUCAUUACUUUAAUUACUUUACGUUUCAUUAAUGACAAA [hsa-mir-548h-4]” was run?
Its value is -0.754.

How did the “pull-down binding Z-score” value turn out when “UUUGUCAUUUAAAAGUAAUGGCAAA [hsa-mir-548ae-2]” was run?
Its value is 0.815.

For UUUGUGGAUUUUGAAAAGGUGCAGG [hsa-mir-15a], which “pull-down binding Z-score” value is on record?
Its value is 1.81.
